Assay results from the DeepSol protein solubility set.

Assay: soluble on expression in E. coli; label from the status in PepcDB or PDB records

MGSDKIHHHHHHMEKLYLKIGNQDEFDICEKVQGLHFLSDDSTPVTTNQFLEISGADGSQFQYATFGKYQVVANFFLEFKSWEDYKLAKHQINRIFSTKKLIRMRTNVESAIVRYVYPNFPEIKPISDGANSSTFSVNFDNPSGYRYSIDRSDELSKVQYGMYLLDNIYPEYRFTDKSFRVYNPSDIAIDPYLGKHDLKIISKFSGNSLKITNTTNGTSWSYNKSSNGSETVLLDGIVTTVNGNPATVNTDYGHIVLNTGWNDIVVSGTNSNDITFSFPFIYI
soluble on expression in E. coli: not soluble

MKPRKQDEKILSDQYSYFEPIISDSCDIKFDGDKRRIGSIFISHEEICFIRKEEDYIFKISLSDVVDYNTVVTIWKNQASLTLNDNRKITFYFVTNSPLTGFISILKTYMQLSRNKETIIPDDNLLINDDDEQTKVEIFDVVGLNYEGRRKELKKLIKKMKTNDAFFFLYSDLKGNELKEELLYEDKVYEIPDYEVIPGVFLQKEPDNPYDENAIKVMISNEYSEFHVGYVPREYASRLVNYIEDTVSCNAYINGGKYKTLDYLEEKIVTKESDYGLRIHVEYKVLEHHHHHH
soluble on expression in E. coli: soluble

IPFPLSAYTHGGEFVRQLDKRILILDGAMGTMIQRYKLGEADFRGERFAEHHKDLKGDNELLSLVRPDVIAEIHRQYLEAGADVIETNTFGATSIAQGDYDLPELAYEMNLESARLARAACDAYSTPEHPRFVAGALGPQPKTASISPDVNDPGARNVTFDELRAAYVEQLNGLLDGGIDIVLIETIFDTLNAKAAIFAVEEAFEARGVRLPVMISGTVTDASGRILSGQTVEAFWNSVRHARPVTIGLNCALGAALMRPYVAELSKICDTYVCVYPNAGLPNPMAETGFDETPADTSALLEEFAQAGLVNMAGGCCGTTPEHIRAIAGKVAALTPRAVPEVPVKTRLSGLEALNIDDETLFVNVGERTNVTGSKMF
soluble on expression in E. coli: not soluble

MQIVQIEQAPKDYISDIKIIPSKSLLLITSWDGSLTVYKFDIQAKNVDLLQSLRYKHPLLCCNFIDNTDLQIYVGTVQGEILKVDLIGSPSFQALTNNEANLGICRICKYGDDKLIAASWDGLIEVIDPRNYGDGVIAVKNLNSNNTKVKNKIFTMDTNSSRLIVGMNNSQVQWFRLPLCEDDNGTIEESGLKYQIRDVALLPKEQEGYACSSIDGRVAVEFFDDQGDDYNSSKRFAFRCHRLNLKDTNLAYPVNSIEFSPRHKFLYTAGSDGIISCWNLQTRKKIKNFAKFNEDSVVKIACSDNILCLATSDDTFKTNAAIDQTIELNASSIYIIFDYENLEHHHHHH
soluble on expression in E. coli: soluble

MVVSIGVFDGVHIGHQKVLRTMKEIAFFRKDDSLIYTISYPPEYFLPDFPGLLMTVESRVEMLSRYARTVVLDFFRIKDLTPEGFVERYLSGVSAVVVGRDFRFGKNASGNASFLRKKGVEVYEIEDVVVQGKRVSSSLIRNLVQEGRVEEIPAYLGRYFEIEGIVHKDREFGRKLGFPTANIDRGNEKLVDLKRGVYLVRVHLPDGKKKFGVMNVGFRPTVGDARNVKYEVYILDFEGDLYGQRLKLEVLKFMRDEKKFDSIEELKAAIDQDVKSARNMIDDIINSKFEKEG
soluble on expression in E. coli: soluble

MSLDLHTHTIYSDGIGSVIDNVNMAEIRGLRLLGISDHIHFFTPSKFLKYVNEVRSIGREAEIPVLVGIEANITENGPDVTEDFAKHLDYVIASVHDWFGEGEVYRYIERIKLALMDENVTIIGHFGNVFPWIGYPTEEQIKEVLDVAEEYGKAFEISSRYRVPDLEFVKMCIKRGIKLVFASDAHRPEDVGRVDWSIKVFEKAGGKKEDLLFSEEGHHHHHH
soluble on expression in E. coli: soluble

MVDPQLDGPQLAALAAVVELGSFDAAAERLHVTPSAVSQRIKSLEQQVGQVLVVREKPCRATTAGIPLLRLAAQTALLESEALAEMGGNASLKRTRITIAVNADSMATWFSAVFDGLGDVLLDVRIEDQDHSARLLREGVAMGAVTTERNPVPGCRVHPLGEMRYLPVASRPFVQRHLSDGFTAAAAAKAPSLAWNRDDGLQDMLVRKAFRRAITRPTHFVPTTEGFTAAARAGLGWGMFPEKLAASPLADGSFVRVCDIHLDVPLYWQCWKLDSPIIARITDTVRAAASGLYRGQQRRRRPG
soluble on expression in E. coli: soluble

MGSDKIHHHHHHMALQWVKRTIKAGAALAGCVLVVTALDPARGSVDAKERVKGIVAAAAMSPAGIPFELAAQEIATIGTRPMAERLSISGELQPVNRVLIRAREAGKILEMNVREGQAVRAGDMLVRFETDELQSTLLLRQSDRDAAEAELMLAMQALARTEQLAAKNIASTEQLDKAKSDVVVKTTRVQSLSSQVDIARLALRNAEIRAPFDGTVTRRVAETGARIGADGELLTLVDTSELEAKVLVATRDIPRVARGQTAELEIDGLAGQIVKGTVERISPVAEDGTRVVAVYLRLANRDGQLWGGMFAGGSILLREKNDALVVPAIALRKDETGYHVLKIQDGHLRRQTVAVGPRWNGGSLIEIGAGLADGETILTVPLPELRPDMAVTIDKAG
soluble on expression in E. coli: not soluble

MGLLVDGRWQDQWYESSKDGAFQRENAQRRNWVTRDGQAGPSGEGGFAAEAGRYHLYVSLACPWAHRTLILRKLKGLEKLIDVSVVSWLMLENGWTFDQQKGSSGDALDDFQFFHQRYTADDPRYTGRVTVPVLWDKQQQRIVSNESAEIIRMFNAAFDELTGNTLDFYPSALQSSIDELNEQIYPKVNNGVYRAGFATSQGAYEEAFDDVFAELDVLENLLGEKRYLTGKHLTEADIRLFTTIVRFDAVYYSHFKCNLRRIADYPNLSNWLRELYQWPGIAETVDFEHIKGHYYASHRTINPTGIIPKGPALDLQAGHDRERLSGEGAWSK
soluble on expression in E. coli: not soluble

MSLTPATQPLINAEPAVAAQTEQNPQVGQVMPGVQGADAPVVAQNGPSRDVKLTFAQIAPPPGSMVLRGINPNGSIEFGMRSDEVVTKAMLNLEYTPSPSLLPVQSQLKVYLNDELMGVLPVTKEQLGKKTLAQMPINPLFITDFNRVRLEFVGHYQDVCENPASTTLWLDVGRSSGLDLTYQTLNVKNDLSHFPVPFFDPRDNRTNTLPMVFAGAPDVGLQQASAIVASWFGSRSGWRGQNFPVLYNQLPDRNAIVFATNDKRPDFLRDHPAVKAPVIEMINHPQNPYVKLLVVFGRDDKDLLQAAKGIAQGNILFRGESVVVNEVKPLLPRKPYDAPNWVRTDRPVTFGELKTYEEQLQSSGLEPAAINVSLNLPPDLYLMRSTGIDMDINYRYTMPPVKDSSRMDISLNNQFLQSFNLSSKQEANRLLLRIPVLQGLLDGKTDVSIPALKLGATNQLRFDFEYMNPMPGGSVDNCITFQPVQNHVVIGDDSTIDFSKYYHFIPMPDLRAFANAGFPFSRMADLSQTITVMPKTPNEAQMETLLNTVGFIGAQTGFPAINLTVTDDGSTIQGKDADIMIIGGIPDKLKDDKQIDLLVQATESWVKTPMRQTPFPGIVPDESDRAAETQSTLTSSGAMAAVIGFQSPYNDQRSVIALLADSPRGYEMLNDAVNDSGKRATMFGSVAVIRESGINSLRVGDVYYVGHLPWFERLWYALANHPILEGHHHHHH
soluble on expression in E. coli: soluble

MKFLSFIFLVSLCAVTSQINAQAPELPLDKIKLPPGFSISVWANVPDARTMTLGDKGTVFVGSKSAGNVYAITENAGKRQIRIIASKLKMPNGVAFHDGALYVSSVNRILRFDNIENTLDQPLPPRIITADYPKETYHGWRFIAFGPDGWLYVPVGSSCNVCETDLEHYALISRIRPDGSNYEVFAKGVRNTEGFDWHPVTKALWFTDISREWMGDNLPPDELNHASNQGLDFGFPYCHGKEVSDPKLGAKRDCNKFIPPAVELDPHVAPMGMRFYTGTMFPAEYHNGIFIAEHGSWNRSTKIGYRLEWVQLEVNEVARKEIFAEGWLQENEAWGRPVDVLVMPDGALLVSDDMAGVVYRISYDQP
soluble on expression in E. coli: not soluble

SNAMIRFQPITTSDVQHYKFMEELLVESFPPEEYRELEHLREYTDRIGNFHNNIIFDDDLPIGFITYWDFDEFYYVEHFATNPALRNGGYGKRTLEHLCEFLKRPIVLEVERPVEEMAKRRINFYQRHGFTLWEKDYYQPPYKEGDDFLPMYLMVHGNLDAEKDYEGIRHKLHTIVYGVKE
soluble on expression in E. coli: soluble

MAHHHHHHMEEAKIEAALHICNLLPAHVFEETIKLLSKVDQNLTNNILINKEGPIKIKFDSQQNKHYLGNMFNKEKDSYRSPYSNRYYPEHYPNGYIPSESLRMLEMLYNEMYDRYRKAYYIGGLSSVYLWPNPIEEGFVACFLIKKKENYDPCTSLTWEGTHLIQVSITHARVYYQISTTVNFFIKKKNEMTLSASINKALETPKKVSNVNLVKDKYFHMHNMGKMIEGIENSLRKSIEYIYLPKMNDILNSIRMDDSFASAWHNADRKAAQNLRTISSNIALSRGSVQDELRLKLKGRSFDAGAEYSLRT
soluble on expression in E. coli: not soluble

MDWTRRLRLQHLQLLVSLMETGNLSGTARAAHTTQPGLSKWLKELEEDVGAPLFERHARGLRPTPYGMTLFNHAQRVLTEMERARQNLEAMRSGSGSRVLLGTSPASAPSLVPRALRAFLGRYPGAQVELLEGTMNGLLERLEKRQLDVVVGRLDNYAPRASLRCEVLYSEAIVVMARPGHPLAQAAALDWEDVRRYDWIVWPPGSPIRSKLDMALTQGGRQPPAYRLESSSMLANIELLRGSDMLSIGSARVVEHLAGLGLVARLALEIPGEGAVGMCWRDEPHRDRASEDLLACLREGAAAE
soluble on expression in E. coli: not soluble

MGSDKIHHHHHHMMGKAALMDAIAGTNRGLLATEAQKQAILAAIANLEDFNPTPRPVEAGNLLDGNWRLLYTTSKALLNLDRLPFCKLGQIYQCIRVETTSVYNIAEIYGLPYLEGLVSVAAKFEPVSGRRVQVKFERSIIGLQRLIEYNSPVTFIQQIEAGKKFAGIDFAIKSDKQQGWLDITYIDNDLRIGRGNEGSVFILSKT
soluble on expression in E. coli: not soluble

MSLAKKNYILVIDDDVMMSQTISDFIHGKGYHVIVCNNLEEAFSELSQYKIDLILINFWQPDGTALILLEHLNEEKITTPVIVISNTKEHQSVLECFRMGVLDFVVKPINLEIFWYKVECLLTRVKLQHEVKLQRVELEKMLYEKAREEKMARNLFEHLVNIDNTQFEFVRTFCQASANFSGDIILKGLAPNGNFFLMPEFNSEVRHSTIKQLIGEEGHHHHHH
soluble on expression in E. coli: soluble

MTDSQSTQMGRGRHAKRNKSTASVGSKKNRTQSTASGKFQPSDGFTTFIVAVSRLGKQGQEFTWHDLRKVYHKETQRQLTAEELNAIFSSKNLTKREIFELPKVKRFMTSMDGSMMCRFRLIADPQEVYDDDLPPLMSTSVETDVITEDTSSDHSQAVSPSSGNPIAISTDCDDKAAGPTSDLSKSDNSPSQRSLAQQSSMTDDEGWVSGKDVRSENSSPVEDKDEVDGSKMEMEDDVFEEDQRIAAESDQVDSAMVADVIIVEEAKVEKLFKAQEIVAPIVLTESIDAAFEAVIQSVSHADATLSMTQNASEEAKVHATPPLPAERKTMVSAELANGKPIKHLIEKFDAGVNFAEHKPKSIYAQVLEEIGGSAPRVDEVFSASKKEEHAETEVTNVIFRSTSTHSSIIANGKEQLAEFVAEQEARQKVTTPNPVKEETENAFCAKEQSSMSSLDREYFASKTKLNEDLFAELGVKDTDGFQLKTVDSNGSGPGSSEIITVIETPLKDDHRKRADSVESDADVPYSLCSEDEAEPMTMIDKSMKVSQSAEQLSPVKEEQKAKTVVVNVELDGNRADPTIKDRIAALQAIVSKQHVPIAKVDSVDDDVRILSRTEELQHMALEAKPSPQALGALRRRHVRFMRGCCVVQ
soluble on expression in E. coli: soluble

AMDIRQVTETIAMIEEQNFDIRTITMGISLLDCIDPDINRAAEKIYQKITTKAANLVAVGDEIAAELGIPIVNKRVSVTPISLIGAATDATDYVVLAKALDKAAKEIGVDFIGGFSALVQKGYQKGDEILINSIPRALAETDKVCSSVNIGSTKSGINMTAVADMGRIIKETANLSDMGVAKLVVFANAVEDNPFMAGAFHGVGEADVIINVGVSGPGVVKRALEKVRGQSFDVVAETVKKTAFKITRIGQLVGQMASERLGVEFGIVDLSLAPTPAVGDSVARVLEEMGLETVGTHGTTAALALLNDQVKKGGVMACNQVGGLSGAFIPVSEDEGMIAAVQNGSLNLEKLEAMTAICSVGLDMIAIPEDTPAETIAAMIADEAAIGVINMKTTAVRIIPKGKEGDMIEFGGLLGTAPVMKVNGASSVDFISRGGQIPAPIHSFKN
soluble on expression in E. coli: soluble
